{"source": "patent US11946041B2", "about": "“Modification of polypeptides” (BicycleRD Limited, priority 2017, dated 2024)", "key": {"[1]": {"target": "T1, CCR4 (Homo sapiens, UniProt P51679)", "T1 construct": "host or cells: CHO-K1", "T1 sequence (P51679 1-360)": "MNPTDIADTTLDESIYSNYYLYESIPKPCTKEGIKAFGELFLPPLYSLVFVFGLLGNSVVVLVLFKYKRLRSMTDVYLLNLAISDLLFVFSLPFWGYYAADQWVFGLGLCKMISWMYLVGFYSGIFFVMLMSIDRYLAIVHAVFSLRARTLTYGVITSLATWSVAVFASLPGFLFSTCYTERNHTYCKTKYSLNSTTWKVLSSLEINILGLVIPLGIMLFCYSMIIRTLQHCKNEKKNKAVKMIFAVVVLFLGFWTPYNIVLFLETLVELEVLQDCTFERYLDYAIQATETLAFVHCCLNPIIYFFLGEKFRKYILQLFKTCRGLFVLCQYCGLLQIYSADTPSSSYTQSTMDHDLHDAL", "assay": "PathHunter eXpress CCR4 CHO-K1 β-Arrestin GPCR Assay, agonist format", "type": "cell-based", "description": "(§1) The aim of the present experiment was to analyze if if these peptides are functional using a Discoverx Assay, the Beta-Arrestin recruitment assay, to identify agonism or antagonism in the selected peptides.\n(§2) Standard protocols used: • PathHunter® eXpress CCR4 CHO-K1 β-Arrestin GPCR Assay. 100 dp (1×96-well)\n(§3) The experiment was carried using the manufacturer instructions.\nThe concentration was increased to test for response at high concentration."}, "[2]": {"target": "T1, CCR4", "assay": "PathHunter eXpress CCR4 CHO-K1 β-Arrestin GPCR Assay, antagonist format with CCL22", "type": "cell-based", "description": "as §1, §2, §3\nWe therefore used the assay in an antagonist format, using 10 nM CCL22.\nWe repeated this experiment lowering the concentration of CCL22 from 10 nM to 1 nM to show a full inhibition curve."}}, "data": [{"sequence": "ACQTLCNTAEDIRCA [24-16-00-N001, bicyclic peptide ligand, TBMB scaffold, from CCR4 cell-based selection]", "values": [{"measurement": "Raw Data", "setting": "[1]; 0.006 nM", "result": 23153}, {"measurement": "Raw Data", "setting": "[1]; 0.02 nM", "result": 23757}, {"measurement": "Raw Data", "setting": "[1]; 0.06 nM", "result": 25748}, {"measurement": "Raw Data", "setting": "[1]; 0.17 nM", "result": 25062}, {"measurement": "Raw Data", "setting": "[1]; 0.51 nM", "result": 25030}, {"measurement": "Raw Data", "setting": "[1]; 1.5 nM", "result": 24736}, {"measurement": "Raw Data", "setting": "[1]; 4.6 nM", "result": 22899}, {"measurement": "Raw Data", "setting": "[1]; 13.9 nM", "result": 20756}, {"measurement": "Raw Data", "setting": "[1]; 41.7 nM", "result": 20583}, {"measurement": "Raw Data", "setting": "[1]; 125 nM", "result": 20012}, {"measurement": "Raw Data", "setting": "[1]; 375 nM", "result": 20361}, {"measurement": "Raw Data", "setting": "[1]; high concentration, 0.001 uM", "result": 10927}, {"measurement": "Raw Data", "setting": "[1]; high concentration, 0.003 uM", "result": 11906}, {"measurement": "Raw Data", "setting": "[1]; high concentration, 0.008 uM", "result": 12502}, {"measurement": "Raw Data", "setting": "[1]; high concentration, 0.023 uM", "result": 12701}, {"measurement": "Raw Data", "setting": "[1]; high concentration, 0.1 uM", "result": 13482}, {"measurement": "Raw Data", "setting": "[1]; high concentration, 0.2 uM", "result": 13403}, {"measurement": "Raw Data", "setting": "[1]; high concentration, 0.6 uM", "result": 14951}, {"measurement": "Raw Data", "setting": "[1]; high concentration, 1.9 uM", "result": 14247}, {"measurement": "Raw Data", "setting": "[1]; high concentration, 5.6 uM", "result": 14263}, {"measurement": "Raw Data", "setting": "[1]; high concentration, 16.7 uM", "result": 13237}, {"measurement": "Raw Data", "setting": "[1]; high concentration, 50 uM", "result": 13817}, {"measurement": "Raw Data", "setting": "[2]; 1 nM CCL22, 0.001 uM", "result": 244145}, {"measurement": "Raw Data", "setting": "[2]; 1 nM CCL22, 0.003 uM", "result": 250550}, {"measurement": "Raw Data", "setting": "[2]; 1 nM CCL22, 0.008 uM", "result": 249215}, {"measurement": "Raw Data", "setting": "[2]; 1 nM CCL22, 0.023 uM", "result": 247868}, {"measurement": "Raw Data", "setting": "[2]; 1 nM CCL22, 0.1 uM", "result": 246609}, {"measurement": "Raw Data", "setting": "[2]; 1 nM CCL22, 0.2 uM", "result": 225038}, {"measurement": "Raw Data", "setting": "[2]; 1 nM CCL22, 0.6 uM", "result": 213774}, {"measurement": "Raw Data", "setting": "[2]; 1 nM CCL22, 1.9 uM", "result": 213016}, {"measurement": "Raw Data", "setting": "[2]; 1 nM CCL22, 5.6 uM", "result": 186217}, {"measurement": "Raw Data", "setting": "[2]; 1 nM CCL22, 16.7 uM", "result": 150731}, {"measurement": "Raw Data", "setting": "[2]; 1 nM CCL22, 50 uM", "result": 107480}, {"measurement": "Raw Data", "setting": "[2]; 10 nM CCL22, 0.001 uM", "result": 155442}, {"measurement": "Raw Data", "setting": "[2]; 10 nM CCL22, 0.003 uM", "result": 169611}, {"measurement": "Raw Data", "setting": "[2]; 10 nM CCL22, 0.008 uM", "result": 142089}, {"measurement": "Raw Data", "setting": "[2]; 10 nM CCL22, 0.023 uM", "result": 158472}, {"measurement": "Raw Data", "setting": "[2]; 10 nM CCL22, 0.1 uM", "result": 157585}, {"measurement": "Raw Data", "setting": "[2]; 10 nM CCL22, 0.2 uM", "result": 159872}, {"measurement": "Raw Data", "setting": "[2]; 10 nM CCL22, 0.6 uM", "result": 147765}, {"measurement": "Raw Data", "setting": "[2]; 10 nM CCL22, 1.9 uM", "result": 143871}, {"measurement": "Raw Data", "setting": "[2]; 10 nM CCL22, 5.6 uM", "result": 140714}, {"measurement": "Raw Data", "setting": "[2]; 10 nM CCL22, 16.7 uM", "result": 167890}, {"measurement": "Raw Data", "setting": "[2]; 10 nM CCL22, 50 uM", "result": 138655}]}, {"sequence": "ACQLTCLTPARQPGCA [24-14-00-N001, bicyclic peptide ligand, TATA scaffold, from CCR4 cell-based selection]", "values": [{"measurement": "Raw Data", "setting": "[1]; 0.006 nM", "result": 28548}, {"measurement": "Raw Data", "setting": "[1]; 0.02 nM", "result": 25603}, {"measurement": "Raw Data", "setting": "[1]; 0.06 nM", "result": 30232}, {"measurement": "Raw Data", "setting": "[1]; 0.17 nM", "result": 28531}, {"measurement": "Raw Data", "setting": "[1]; 0.51 nM", "result": 32968}, {"measurement": "Raw Data", "setting": "[1]; 1.5 nM", "result": 30785}, {"measurement": "Raw Data", "setting": "[1]; 4.6 nM", "result": 27510}, {"measurement": "Raw Data", "setting": "[1]; 13.9 nM", "result": 24521}, {"measurement": "Raw Data", "setting": "[1]; 41.7 nM", "result": 24892}, {"measurement": "Raw Data", "setting": "[1]; 125 nM", "result": 21899}, {"measurement": "Raw Data", "setting": "[1]; 375 nM", "result": 20214}, {"measurement": "Raw Data", "setting": "[1]; high concentration, 0.001 uM", "result": 10817}, {"measurement": "Raw Data", "setting": "[1]; high concentration, 0.003 uM", "result": 11788}, {"measurement": "Raw Data", "setting": "[1]; high concentration, 0.008 uM", "result": 12385}, {"measurement": "Raw Data", "setting": "[1]; high concentration, 0.023 uM", "result": 12607}, {"measurement": "Raw Data", "setting": "[1]; high concentration, 0.1 uM", "result": 12143}, {"measurement": "Raw Data", "setting": "[1]; high concentration, 0.2 uM", "result": 13151}, {"measurement": "Raw Data", "setting": "[1]; high concentration, 0.6 uM", "result": 12839}, {"measurement": "Raw Data", "setting": "[1]; high concentration, 1.9 uM", "result": 12725}, {"measurement": "Raw Data", "setting": "[1]; high concentration, 5.6 uM", "result": 12720}, {"measurement": "Raw Data", "setting": "[1]; high concentration, 16.7 uM", "result": 12239}, {"measurement": "Raw Data", "setting": "[1]; high concentration, 50 uM", "result": 13314}, {"measurement": "antagonist for CCR4", "setting": "[2]; 1 nM CCL22", "result": "antagonist"}, {"measurement": "Raw Data", "setting": "[2]; 1 nM CCL22, 0.001 uM", "result": 240299}, {"measurement": "Raw Data", "setting": "[2]; 1 nM CCL22, 0.003 uM", "result": 222439}, {"measurement": "Raw Data", "setting": "[2]; 1 nM CCL22, 0.008 uM", "result": 212749}, {"measurement": "Raw Data", "setting": "[2]; 1 nM CCL22, 0.023 uM", "result": 212035}, {"measurement": "Raw Data", "setting": "[2]; 1 nM CCL22, 0.1 uM", "result": 215827}, {"measurement": "Raw Data", "setting": "[2]; 1 nM CCL22, 0.2 uM", "result": 201484}, {"measurement": "Raw Data", "setting": "[2]; 1 nM CCL22, 0.6 uM", "result": 200525}, {"measurement": "Raw Data", "setting": "[2]; 1 nM CCL22, 1.9 uM", "result": 198268}, {"measurement": "Raw Data", "setting": "[2]; 1 nM CCL22, 5.6 uM", "result": 171795}, {"measurement": "Raw Data", "setting": "[2]; 1 nM CCL22, 16.7 uM", "result": 116828}, {"measurement": "Raw Data", "setting": "[2]; 1 nM CCL22, 50 uM", "result": 102610}, {"measurement": "Raw Data", "setting": "[2]; 10 nM CCL22, 0.001 uM", "result": 163937}, {"measurement": "Raw Data", "setting": "[2]; 10 nM CCL22, 0.003 uM", "result": 138339}, {"measurement": "Raw Data", "setting": "[2]; 10 nM CCL22, 0.008 uM", "result": 156373}, {"measurement": "Raw Data", "setting": "[2]; 10 nM CCL22, 0.023 uM", "result": 159753}, {"measurement": "Raw Data", "setting": "[2]; 10 nM CCL22, 0.1 uM", "result": 168602}, {"measurement": "Raw Data", "setting": "[2]; 10 nM CCL22, 0.2 uM", "result": 151985}, {"measurement": "Raw Data", "setting": "[2]; 10 nM CCL22, 0.6 uM", "result": 158845}, {"measurement": "Raw Data", "setting": "[2]; 10 nM CCL22, 1.9 uM", "result": 143688}, {"measurement": "Raw Data", "setting": "[2]; 10 nM CCL22, 5.6 uM", "result": 150686}, {"measurement": "Raw Data", "setting": "[2]; 10 nM CCL22, 16.7 uM", "result": 132736}, {"measurement": "Raw Data", "setting": "[2]; 10 nM CCL22, 50 uM", "result": 138731}]}]}
